The values below come from patent publication US20260199504A1 (JIANGSU HENGRUI PHARMACEUTICALS, published 2026).

Test [1] has as its target T1, human Nectin-4 His (Cat. #19771-H08H, Sino Biological) (human, UniProt Q96NY8 32-349).
T1 construct: Bought soluble antigen; the construct is probably only a part of it; also called human Nectin-4 His antigen; not shown: His tag
T1 sequence: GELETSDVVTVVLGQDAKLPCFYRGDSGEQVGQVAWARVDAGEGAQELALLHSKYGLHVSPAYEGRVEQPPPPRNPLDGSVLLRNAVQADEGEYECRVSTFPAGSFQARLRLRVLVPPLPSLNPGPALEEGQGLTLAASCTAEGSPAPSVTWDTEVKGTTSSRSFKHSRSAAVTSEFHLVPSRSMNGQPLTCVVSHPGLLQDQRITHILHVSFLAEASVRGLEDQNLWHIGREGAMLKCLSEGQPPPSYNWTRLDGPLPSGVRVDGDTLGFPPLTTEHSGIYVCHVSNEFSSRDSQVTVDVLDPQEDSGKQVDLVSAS
The test can be described thus: SPR, Biacore T200; antibody captured on Protein A chip, human Nectin-4 His as analyte; 1:1 Langmuir model. Here is the method: The anti-Nectin-4 antibody was analyzed by Biacore T200 (GE) for characteristic affinity and binding kinetics. A Protein A biosensor chip (Cat. #29127556, GE) was used to affinity-capture IgG antibodies, and then the human Nectin-4 His (Cat. #19771-H08H, Sino Biological) antigen that was diluted with HBS-EP buffer (pH 7.4) (Cat. #BR-1001-88, GE) to a series of concentrations was allowed to flow over the surface of the chip. The antigen-antibody binding kinetics was tracked for 3 min and the dissociation kinetics was tracked for 10 min. Reaction signals were detected in real time using a Biacore T200 instrument to obtain binding and dissociation curves. After dissociation was complete in each cycle, the biosensor chip was washed with 10 mM Gly-HCl pH 1.5 (Cat. #BR-1003-54, GE) for regeneration. The data obtained were analyzed with BIAevaluation software of GE using a 1:1 (Langmuir) binding model.

For test [2], the target named is T2, human Nectin-4 on Nectin4-CHOK1 cells (CHO-K1 cell strain highly expressing Nectin-4) (human, UniProt Q96NY8 32-510).
T2 sequence: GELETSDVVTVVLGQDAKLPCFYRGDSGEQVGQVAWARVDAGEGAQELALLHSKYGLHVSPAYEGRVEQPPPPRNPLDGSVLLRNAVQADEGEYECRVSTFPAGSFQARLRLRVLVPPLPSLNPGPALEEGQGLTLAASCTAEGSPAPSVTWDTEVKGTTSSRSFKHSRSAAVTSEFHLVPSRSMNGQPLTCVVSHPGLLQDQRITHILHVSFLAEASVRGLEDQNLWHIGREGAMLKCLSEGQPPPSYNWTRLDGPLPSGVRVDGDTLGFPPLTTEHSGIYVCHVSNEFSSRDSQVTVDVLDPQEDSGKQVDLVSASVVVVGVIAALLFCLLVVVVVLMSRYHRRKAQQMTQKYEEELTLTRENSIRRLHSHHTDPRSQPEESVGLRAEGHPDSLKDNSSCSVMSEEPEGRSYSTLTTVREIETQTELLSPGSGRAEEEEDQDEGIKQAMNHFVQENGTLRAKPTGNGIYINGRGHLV
The experiment in a line: cell-based or functional assay.

The target of test [3] is T2, human Nectin-4 on Nectin4-CHOK1 cells …. The experiment in a line: flow cytometry on Nectin4-CHOK1 cells. Here is the method: (§1) After centrifugation and removal of the supernatant, the test antibody that was diluted with the FACS buffer to different concentrations was added at 50 μL/well. The plate was incubated in the dark in a 4° C. refrigerator for 1 h. The plate was washed 3 times with FACS buffer by centrifugation at 500 g, and Alexa Fluor 488 Goat anti-Human IgG (H+L) (invitrogen, A-11013) was then added in a working concentration. The plate was incubated in the dark in a 4° C. refrigerator for 40 min. The plate was washed 3 times with FACS buffer by centrifugation at 500 g and tested on a BD FACSCantoII flow cytometer for geometric mean fluorescence intensity, and the EC₅₀ values for the binding of the antibodies to Nectin-4-expressing cells were calculated.
In general terms: In flow cytometry, cells or beads pass a laser one at a time.

Test [4] deals with T3, Nectin-4 expressed on T47D and MDA-MB-468 human breast cancer cells (human, UniProt Q96NY8 32-510).
T3 construct: whole, on cells; Nectin-4 native to the cell lines; also called Nectin-4-expressing cells
T3 sequence (looked up): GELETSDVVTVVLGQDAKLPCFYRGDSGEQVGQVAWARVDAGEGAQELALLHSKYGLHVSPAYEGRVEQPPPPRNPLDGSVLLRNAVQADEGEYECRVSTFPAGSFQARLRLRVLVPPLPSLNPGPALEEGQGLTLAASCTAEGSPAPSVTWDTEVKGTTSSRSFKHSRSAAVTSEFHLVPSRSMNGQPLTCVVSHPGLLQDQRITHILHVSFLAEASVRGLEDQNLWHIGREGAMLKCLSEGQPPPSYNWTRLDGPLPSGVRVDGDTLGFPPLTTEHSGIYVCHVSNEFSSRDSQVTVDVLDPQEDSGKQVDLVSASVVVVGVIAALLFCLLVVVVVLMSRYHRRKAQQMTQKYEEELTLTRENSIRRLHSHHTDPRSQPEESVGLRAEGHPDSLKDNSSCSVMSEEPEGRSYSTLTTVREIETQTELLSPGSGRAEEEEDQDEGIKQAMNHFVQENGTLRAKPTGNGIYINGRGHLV
The test can be described thus: flow cytometry on T47D cells. Here is the method: as §1

Test [5] concerns the target T3, Nectin-4 expressed on T47D and …. The experiment in a line: flow cytometry on MDA-MB-468 cells. The method, then: as §1

B1: EV201 (positive control antibody; antibody of enfortumab vedotin) (antibody, human IgG1, kappa, V domains shown)
VH: EVQLVESGGGLVQPGGSLRLSCAASGFTFSSYNMNWVRQAPGKGLEWVSYISSSSSTIYYADSVKGRFTISRDNAKNSLSLQMNSLRDEDTAVYYCARAYYYGMDVWGQGTTVTVSS
VL: DIQMTQSPSSVSASVGDRVTITCRASQGISGWLAWYQQKPGKAPKFLIYAASTLQSGVPSRFSGSGSGTDFTLTISSLQPEDFATYYCQQANSFPPTFGGGTKVEIKR
notes: also called control antibody EV201; control molecule
What is called Kd is the free concentration of one partner at which half of the binding sites on the other are occupied at equilibrium, for simple one-to-one binding. The koff is the first-order rate constant of dissociation. In general, kon refers to the second-order rate constant of association. A high value points to fast association. One may read the EC50 as the concentration needed to bring the measured effect to its halfway point. Higher therefore signals lower potency in that assay. The molecule B1 gave a Kd in test [1] of 9.33 nM. In test [1], this molecule came in with a koff of 0.00661 s⁻¹. Moreover, the kon in test [1] turned out to be 709000 M⁻¹ s⁻¹. The “IC50 (nM) (DT3C antibody endocytosis assay, Nectin4-CHOK1 cells)” value in test [2] stood at 0.5 nM. Besides, the EC50 amounted to 0.94 nM in test [3], 0.26 nM in test [4] and 0.23 nM in test [5].

B2: NEC49 (fully human-derived anti-Nectin-4 antibody) (antibody, V domains shown)
VH: EVQLLESGGGLVQPGGSLRLSCAASGFTFSSYAMSWVRQAPGKGLEWVSAIYSGGSTYYADSVKGRFTISRDNSKNTLYLQMNSLRAEDTAVYYCTRHGGDSGSWSYYYYGMDVWGQGTTVTVSS
VL: not shown
notes: also called antibody NEC49
As for B2, the dissociation constant (Kd) in test [1] was 5.15 nM. In test [1], the koff turned out to be 0.00189 s⁻¹. Also, the kon in test [1] came out at 367000 M⁻¹ s⁻¹. In addition, the “IC50 (nM) (DT3C antibody endocytosis assay, Nectin4-CHOK1 cells)” value in test [2] was 0.43 nM. Also, the values for the EC50 in test [3], in test [4] and in test [5] were 0.78 nM, 0.07 nM and 0.06 nM, respectively.
